Read-outs that look alike come from different tables or passages of the source.
Legend:
[1] = target: T1, panel of four distinct ZIKV strains (H/PF/2013; MR766, MRS-OPY and PV10552); assay: cell-based or functional assay
[2] = target: T1, panel of four distinct ZIKV strains …; assay: cell-based or functional assay; remark: listed apart in the source

B1: ZKA190 (antibody, V domains shown)
VH: QVQLVESGGGVVQPGRSLRLSCAASGFTFSKYGMHWVRQAPGKGLEWVAVISYEGSNKYYADSVKGRFTISRDNSKNTLYLQMNSLRAEDTAVYYCAKSGTQYYDTTGYEYRGLEYFGYWGQGTLVTVSS
VL: EIVLTQSPGTLSLSPGERATLSCRASQSVSSSYLAWYQQKRGQAPRLLIYDASSRATGIPDRFSGSGSGTDFTLTISRLEPEDFAVYYCQQYGRSRWTFGQGTKVEIK
- ZIKV neutralization IC50 (four strains, Vero cells, flow cytometry) [1]: 0.6 to 8 ng/mL
- ZIKV neutralization IC50 (four strains, Vero cells, flow cytometry) [2]: 0.004 to 0.05 nM
